Data taken from patent US20090099826A1 (published 2009).

T1: BIR3 domain of XIAP (residues 252-350), wild type
T1 chain: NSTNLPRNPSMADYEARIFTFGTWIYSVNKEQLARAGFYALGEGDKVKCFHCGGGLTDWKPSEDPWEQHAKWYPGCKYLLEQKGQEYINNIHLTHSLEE


Assays:
[1] = molecular target: T1, BIR3 domain of XIAP (residues 252-350), …
[2] = molecular target: XIAP-BIR3 point mutant G326E
[3] = molecular target: XIAP-BIR3 point mutant H343A
[4] = molecular target: XIAP-BIR3 point mutant L344A
[5] = molecular target: XIAP-BIR3 point mutant P325G
[6] = molecular target: the molecule itself; test: sedimentation equilibrium, analytical ultracentrifugation (self-association)
Description: To accurately determine the basal state of caspase-9 in solution, the molecular weight of caspase-9 was examined by sedimentation equilibrium analysis using analytical ultra-centrifugation (Table 2). […] In addition, this analysis confirms that the XIAP-BIR3 domain forms a stable hetero-dimer with the caspase-9 monomer (Table 2).
Analytical ultracentrifugation. Protein samples were prepared in 10 mM Tris-HCl, pH 8.0, 100 mM NaCl, and 2 mm DTT. All sedimentation equilibrium experiments were carried out at 4° C. using a Beckman Optima XL-A analytical ultracentrifuge equipped with an An60 Ti rotor and using six-channel, 12 mm path length, charcoal-filled Epon centerpieces and quartz windows. Data were collected at four rotor speeds (10,000, 15,000, 20,000, and 25,000 rpm) and represent the average of twenty scans using a scan step-size of 0.001 cm. Partial specific volumes and solution density were calculate using the Sednterp program. Data were analyzed using the WinNONOLIN program from the Analytical Ultracentrifugation Facility at the University of Connecticut (Storrs, Conn.).

| Protein | cleavage of procaspase-3 (C163A) by caspase-9, SDS-PAGE [1] | cleavage of procaspase-3 (C163A) by caspase-9, SDS-PAGE [2] | cleavage of procaspase-3 (C163A) by caspase-9, SDS-PAGE [3] | cleavage of procaspase-3 (C163A) by caspase-9, SDS-PAGE [4] | cleavage of procaspase-3 (C163A) by caspase-9, SDS-PAGE [5] | binding result [6] |
| --- | --- | --- | --- | --- | --- | --- |
| caspase-9, wild-type, processed catalytic domain (residues 139-315 and 316-416) (protein) chain 1: VGALESLRGNADLAYILSMEPCGHCLIINNVNFCRESGLRTRTGSNIDCEKLRRRFSSLHFMVEVKGDLTAKKMVLALLELAQQDHGALDCCVVVILSHGCQASHLQFPGAVYGTDGCPVSVEKIVNIFNGTSCPSLGGKPKLFFIQACGGEQKDHGFEVASTSPEDESPGSNPEPD chain 2: ATPFQEGLRTFDQLDAISSLPTPSDIFVSYSTFPGFVSWRDPKSGSWYVETLDDIFEQWAHSEDLQSLLLRVANAVSVKGIYKQMPGCFNFLRKKLFFKTS | incubation with the WT BIR3 protein (residues 252-350) resulted in the efficient inhibition of the activity (lane 2) | led to loss of this inhibition as judged by the cleavage of procaspase-3 precursor | led to loss of this inhibition as judged by the cleavage of procaspase-3 precursor | led to loss of this inhibition as judged by the cleavage of procaspase-3 precursor | led to loss of this inhibition as judged by the cleavage of procaspase-3 precursor | – |
| Procaspase-9 zymogen (residues 139-416) (enzyme, mammalian, UniProt P55211 139-416, looked up, range 139-416; Used here for self-association; also called unprocessed procaspase-9 zymogen) VGALESLRGNADLAYILSMEPCGHCLIINNVNFCRESGLRTRTGSNIDCEKLRRRFSSLHFMVEVKGDLTAKKMVLALLELAQQDHGALDCCVVVILSHGCQASHLQFPGAVYGTDGCPVSVEKIVNIFNGTSCPSLGGKPKLFFIQACGGEQKDHGFEVASTSPEDESPGSNPEPDATPFQEGLRTFDQLDAISSLPTPSDIFVSYSTFPGFVSWRDPKSGSWYVETLDDIFEQWAHSEDLQSLLLRVANAVSVKGIYKQMPGCFNFLRKKLFFKTS | – | – | – | – | – | no binding (tested: 20 µM) |
